From publication PMC2042504

How the values were obtained:
[1] = target: 35S-labeled Vpu TM domain, in vitro translated (gel permeation) (HIV-1, isolate not stated (NL4-3 and R5 cloned)); test: SEC; gel permeation of 35S-labeled in vitro translation mixture on Sephacryl S200HR in PBS, calibrated with lysozyme and BSA; pentamer and monomer peaks
[2] = target: 35S-labeled full-length Vpu protein, in vitro translated (gel permeation) (HIV-1, isolate not stated (NL4-3 and R5 cloned)); test: as above
[3] = target: Vpu fused to ECFP or to EYFP (HIV-1, isolate not stated (NL4-3 and R5 cloned)); test: FRET or BRET; acceptor photobleaching FRET of ECFP-Vpu and EYFP-Vpu in live COS-1 cells with low expression, punctate and vesicular distribution
[4] = target: Vpu fused to ECFP or to EYFP (HIV-1, isolate not stated (NL4-3 and R5 cloned)); test: FRET or BRET; acceptor photobleaching FRET of ECFP-Vpu and EYFP-Vpu in live U2-OS cells, regions that appeared to be Golgi or unidentified vesicles

Substance: 35S-labeled Vpu TM domain, in vitro translated (gel permeation) (domain or fragment)
- percent of the radioactivity in the oligomer peak [1]: 10%
- stoichiometry N [1]: 5

Substance: 35S-labeled full-length Vpu protein, in vitro translated (gel permeation) (natural protein)
- percent of the radioactivity in the oligomer peak [2]: 10%
- stoichiometry N [2]: 5

Substance: Vpu fused to ECFP or to EYFP (natural protein)
- FRET efficiency [3]: 18.5%
- FRET efficiency [4]: 26%
